Results: FireProtDB (doi:10.1016/s0022-2836(02)00630-7)

B1: Phosphocarrier protein HPr, P08877 (parent)
chain: MAQKTFKVTADSGIHARPATVLVQTASKYDADVNLEYNGKTVNLKSIMGVMSLGIAKGAEITISASGADENDALNALEETMKSEGLGE

Variants of: B1
Details: Bacillus subtilis (strain 168), pH 7, CD, Potassium phosphate 10 mM, reversible: yes, structure 1KKM, whole UniProt chain shown; for ddG of mutation (higher = less stable) / denaturant m value / denaturant midpoint (higher = more stable): 25 °C

| Variant | ddG of mutation (higher = less stable) (Thermal) [kcal/mol] | ddG of mutation (higher = less stable) (Urea) [kcal/mol] | denaturant m value (Urea) [kcal/mol/M] | denaturant midpoint (higher = more stable) (Urea) [M] | Tm (Thermal) [°C] | change of melting temperature, mutant - wild type (higher = more stable) (Thermal) [°C] | unfolding enthalpy (van 't Hoff) (Thermal) [kcal/mol] |
| --- | --- | --- | --- | --- | --- | --- | --- |
| MAQKTFKVTADSGIHARPATVLVQTASKYDADVNLEYNGKTVNLKSIMAVMSLGIAKGAEITISASGADENDALNALEETMKSEGLGE | -0.8 | -0.9 | 1.01 | 5.44 | 75.8 | 3.2 | 82.4 |
| MAQKTFKVTADSGIHARPATVLVQTASKYDADVNLEYNGKTVNLKSIMKVMSLGIAKGAEITISASGADENDALNALEETMKSEGLGE | 1 | 0.8 | 1.13 | 3.84 | 68.1 | -4.5 | 73.9 |
| MAQKTFKVTADSGIHARPATVLVQTASKYDADVNLEYNGKTVNLKSIMEVMSLGIAKGAEITISASGADENDALNALEETMKSEGLGE | -1.4 | -1.2 | 1 | 5.77 | 78.1 | 5.5 | 83.8 |
